Here are results for 9 molecules from US20250241939A1, “NUCLEIC ACID-BASED DELIVERY SYSTEMS AND USES THEREOF” (Kodikaz Therapeutic Solutions, Inc., priority 2022, published 2025).

The subject of data set [1] is MM cell lines (MM1s, OPM1, RPMI). Description: Cell viability: sensitivity to bortezomib after culture with plasma and ctDNA. The data set is classed as cell-based, human. As to the method: BR: Bortezomib resistant, BS: Bortezomib sensitive. Error bars indicate the standard deviation of triplicate experiments.
(§1) Cell viability: Cell viability assays were performed in 96 well, black, clear-bottom microplates. For MM cell line studies, 3×10^4 cells were cultured for 24 hours with media containing 10% human plasma of a bortezomib-resistant or-sensitive patient or a control non-cancer patient. Cells were then cultured for 24 hours with titrating concentrations of bortezomib (doses: 0, 5, 10, 15, 50 nM; Sigma). For PC cell lines viability studies, 1×10^4 cells were incubated for 24 hours with media containing plasma of a gemcitabine-resistant patient or non-cancer patient. Subsequently, titrating concentrations of gemcitabine (doses: 0, 10, 25, 50, 100, 200 μM; Sigma-Aldrich, MO) were added to the culture media and cells were then incubated for 96 hours. CellTiter-Blue Cell Viability Assay was used to evaluate cell viability according to the manufacturer's instructions (Promega). Cell viability was measured by a fluorescent protocol in an microplate reader. Experiments were performed in triplicate of 3 independent studies.

The subject of data set [2] is ctDNA chromatid integration in MM1s, MIA and HCT116 cell lines. Description: Effect of reverse transcriptase or integrase inhibitors on ctDNA chromatid integration. The data set is classed as cell-based, human. To be noted: HCT116 treated prior to adding ctDNA, compared to no treatment control. Here is the method:
To evaluate functionally the role of retrotransposons in horizontal gene transfer of ctDNA, experiments were conducted to test the impact of inhibiting reverse transcriptases or integrases on ctDNA integration. Multiple myeloma (MM1s), pancreatic cancer (MIA), and colon cancer (HCT116) cell lines were treated with the reverse-transcriptase inhibitors zidovudine or didanosine, and with the integrase inhibitor raltegravir prior to adding the ctDNA to culture media.

Data set [3] concerns pancreatic cancer cell lines (MIA Paca-2 [MIA] and PANC1). Description: Cell viability: sensitivity to gemcitabine after culture with patient plasma. The data set is classed as cell-based, human. As to the method: For the corresponding DNase I-treated samples, plasma was treated with DNase I for 10 minutes. GR: Gemcitabine resistant.
Gemcitabine (GEM)-sensitive pancreatic cancer cell lines (MIA Paca-2 [MIA] and PANC1) were cultured for 24 h with DNase-treated or non-treated plasma from (GEM)-resistant (GR) patients or control plasma.
as §1

The subject of data set [4] is MM1s (multiple myeloma) cell genome. Description: ctDNA coculture with MM1s cells, whole genome sequencing: genomic insertion sites, transposons at insertion points and SNVs (multiple myeloma). The data set is classed as cell-based, human. As to the method:
The integration of ctDNAs into the host cell genome was evaluated. ctDNA was extracted from patient plasma, cultured for 24 hours with cells of a matching cancer cell type or non-matching cancer cell type, and whole genome sequencing was performed. The cell lines used were MM1s (multiple myeloma, MM) and MIA (pancreatic cancer, PC).
Single nucleotide variants (SNVs) unique to the ctDNA that were found in the host cell genome under matching coculture conditions were identified.
The sequence data was used to reconstruct genomic contigs for each experimental condition by de novo assembly. […] Coculture contigs carrying a ctDNA insertion were identified using NucDiff analysis. BLAST alignment analysis further validated the gain of ctDNA fragments in coculture conditions and identified the transition points of ctDNA insertion (FIGS. 3A-3C). […] The remaining 20% inserted into a chromosomal location distinct from their site of origin.
Experiments were designed to identify the presence of transposons in ctDNA fragments. To map ctDNA genomic junctions more precisely, a PACBIO probe was ligated to multiple myeloma and pancreatic cancer ctDNA samples to label their 5′ and 3′ ends. Whole-genome sequencing of DNA from cells with ctDNA genomic integration was done using the Illumina platform. De novo assembly was performed on the sequencing output. ctDNA contigs containing PACBIO adaptor were then matched to those contigs containing inserted ctDNA sequences identified in the coculture experiments. Transposable element on ctDNA sequences at the insertion points (<100 nucleotides from transition point between cell and ctDNA) were detected and classified using RepeatMaster.
A search was conducted for transposons that preferentially target cells of matching tumor types. The lists of transposons identified at the ctDNA insertion point in matching and mismatched coculture conditions were compared (e.g., MM ctDNA with MM cells or PC cells). Transposons were selected that were uniquely or preferentially inserted in the matching conditions.
In multiple myeloma, AluSp, MER11, MER11C, AluJb, and L2a, among other subfamilies of retrotransposons were identified at the MM ctDNA insertion sites (FIG. 5B and TABLE 7).
Whole-genome sequencing and Whole exon sequencing: ctDNA was extracted from 10 MM and 10 PC patients. DNA from CD138 (+) cells and from cell lines used in in vitro experiments (MM1s and MIA) was extracted using Blood & Cell Culture DNA Mini Kit (Quiagen, MD). DNA from […] paraffin embedded pancreatic tumors was obtained using QIAamp DNA FFPE Tissue Kit Print (Qiagen, MD).
After extraction, ctDNA was ligated to the PACBIO adaptor ([…]) using the ABM DNA Library Prep Kit for Illumina Sequencing (Applied Biological Materials Inc. Canada). PACBio-labeled ctDNA and regular ctDNA were subjected to standard methods for library preparation and sequencing using Illumina and Agilent protocols, respectively. Applied Biological Materials Inc. prepared the libraries and performed whole-exon and -genome sequencing. The average target coverage was 50×.
Identification of transposable elements and its nucleotide variants: To determine the locations of transposable-like regions in contigs, sequences were analyzed and transposable elements (TEs) were identified and classified using RepeatMasker version 4.1.0 and the Dfam database (release 3.1) of repetitive DNA families was used as a reference for identifying repeats in ctDNA contig sequences that were part of qualifying structural events. For each repeat sequence identified by RepeatMasker, the overall frequency of the specific repeat (e.g., for AluSp or L1) and their parent class (e.g., SINE) was computed.
Once the TE elements were identified, hit repeats/TE sequences, unique contigs for all samples, and insertion sequence were aligned with MAFFT software version. […]

For data set [5], the system named is multiple myeloma cell line. Description: Uptake of fluorescent MM2 fragments, fluorescent microscopy. To be noted: Fluorescein 12 dCTP labelled PCR products. The data set is classed as cell-based. Here is the method: FIG. 19 provides fluorescence microcopy images showing uptake of fluorescently labelled synthetic DNA derived from a multiple myeloma ctDNA (MM2 (1-290), MM2 (89-290), MM2 (177-290), and MM2 (1-201), and MM2 (1-113)), or a control sequence.
Fluorescein 12 dCTP from Perkin Elmer was used to label the PCR products, which were purified after the reaction.
In an initial study, fragments were generated as follows:
The fluorescent DNA sequences were incubated with multiple a myeloma cell line and uptake was evaluated by fluorescent microscopy.
The study was repeated with 5′FAM-labelled primers, with similar results.

Data set [6] relates to MM/B cell lines (MM1S and RPMI). Description: Uptake of MM2 fragments in different cell types. It counts as cell-based. To be noted: DAPI and Texas red-phalloidin counterstain. From the text:
(§2) FIG. 20 provides fluorescence microcopy images evaluating uptake of fluorescently labelled synthetic DNA derived from a multiple myeloma ctDNA (MM2 (1-290), MM2 (89-290), MM2 (177-290), and MM2 (1-201), and MM2 (1-113)) by multiple myeloma/B cell lines (MM1S and RPMI) and cell lines of other cell types (HFF—fibroblast, DU145—prostate cancer, MCF10A breast).
(§3) A follow-up experiment evaluated uptake of the fragments in different cell types, with counterstaining to identify nuclei (DAPI) and cytoplasm (Texas red-phalloidin).

The subject of data set [7] is HFF (fibroblast), DU145 (prostate cancer), and MCF10A (breast). Description: Uptake of MM2 fragments in different cell types. It counts as cell-based.
Excerpt: as §2, §3

For the molecule `CC(C)C[C@H](NC(=O)[C@H](Cc1ccccc1)NC(=O)c1cnccn1)B(O)O` [bortezomib], the sensitivity to bortezomib result in data set [1] (MM1s and OPM1, ctDNA of BR patient added to non-cancer patient plasma) was “decreased the sensitivity”; in data set [1] (RPMI cells, ctDNA of BS patient added to control plasma), “increased sensitivity”. The resistance to bortezomib entry in data set [1] (ctDNA of a BR patient added to plasma of a BR patient) is “further increased”.

With `O=c1[nH]cnc2c1ncn2[C@H]1CC[C@@H](CO)O1` [didanosine], the ctDNA chromatid integration entry in data set [2] was “significantly reduced”.

For `Nc1ccn([C@@H]2O[C@H](CO)[C@@H](O)C2(F)F)c(=O)n1` [gemcitabine], the response to gemcitabine entry in data set [3] (cells cultured 24 h with non-DNase-treated GR patient plasma, vs control serum) is recorded as “became resistant”; in data set [3] (cells cultured with DNase-treated GR plasma), “restored the inherent sensitivity”; in data set [3] (control serum treated with DNase), “increased resistance”.

`Cc1nnc(C(=O)NC(C)(C)c2nc(C(=O)NCc3ccc(F)cc3)c(O)c(=O)n2C)o1` [raltegravir]: in data set [2], the ctDNA chromatid integration result was “significantly reduced”.

As to `Cc1cn([C@H]2C[C@H](N=[N+]=[N-])[C@@H](CO)O2)c(=O)[nH]c1=O` [zidovudine], in data set [2], the ctDNA chromatid integration entry is recorded as “significantly reduced”.

B1: THE1C (nucleic acid, listed as Homo sapiens)
DNA: TGATATGGTTTGGCTGTGTCCCCACCTAAATCTCATCTTGAATTGTAGTTCCCATAATCCCCATGTGTCATGGGAGGGACCCAGTGGGAGGTAATTTAATCCTGGGGGCAGTTACCCTCCTGCTATGTGTGTGTGTGTGTGTGTGTTCTCACGAGATCTGATGGTTTTATAAGGGGCTTTTCCCCCTTCGCTCGGCACTTCTCCTTCCTGCCGCCATGTGAAGAAGGACGTGTTTGCTTCCCCTTCCGCCATGATTGTAAGTTTCCTGAGGCCTCCCCAGCCATGCNGAACTGTGAGTCAATTAAACCTCTTTCCTTTATAAATTACCCAGTCTCGGGTGTGTCTTTATTAGCAGCGTGAGAACGGACTAATACA
modifications: misc_difference 287 a, c, t, g, unknown or other
For B1, the blast orientation entry in data set [4] (TABLE 7, multiple myeloma co-culture, BLAST alignment orientation) is listed as “Plus/Minus”. The blast chr entry in data set [4] (TABLE 7, multiple myeloma co-culture, chromosome with the longest result for BLAST analysis of the full contig) is listed as “chr14”. Further, the Transposon orientation entry in data set [4] (TABLE 7, multiple myeloma co-culture, compared with the human reference genome) is on record as “direct”. Further, the Distance from insertion in data set [4] (TABLE 7, multiple myeloma co-culture, distance between insertion and the transposon (0 if they overlap)) came out at 0. Further, the “Location relative to insertion” value in data set [4] (TABLE 7, multiple myeloma co-culture, location of the transposon relative to the insertion on the contig) was “intersect”.

B2: MM2 (177-290): fluorescently labelled fragment of MM2 (1-290) (nucleic acid, listed as Homo sapiens)
DNA: GGGATTATAAGCACCCACCACCACGCCCAGCTAATTTTGTATTTTTTAGAAGAGATGGAGTTTCTCCAGTTGGCCAGGATGGTCTGTATATCCTGACCTCATGATCTGCCCACC
modifications: DNA, all phosphodiester, methylation of C not given here; fluorescein label via fluorescein-12-dCTP or 5' FAM primer
As to B2, the uptake entry in data set [5] is on record as “observed”; in data set [6], “observed”; in data set [7], “not”.

B3: 3 (nucleic acid, listed as Homo sapiens)
chain: TCTCACCACCTCTACTACTGCCTATCTGCATCTGGGTGCACGTCCTCTGCTATTCCTTCTGTTTCTACAGAAGCTGTCCATATTTCTAAGGCTAATCCCTTGCATTTTGGTACCAGACTTCCCTGACCTACACAAAGATGATCACCCCCCAAAATTGCCTTTCTTTCCTGCATCAAGTTTTTTCTTCTCTACTGTATTATTCCTATTGCACATTAGCCCAAAAAATGCCGTTGTTTTTCCATCGGTAAAAAAAAAAAATAGAGAGAAAAAGAAAAATAATCCATTGCCGCCAATCTATCTTCTAGTCATTTTTCCATTTCTCTGTTCTCCATTCTGCATAAACCATTTTTACTTGAATTGTTTATACTTGCTGTTTACAACAAACCTCCTCTTTCTCTCCACCCCAATCAGATTTTGGTCCACATTCCTCATGCAGTGGTCAGTCCTTGGTCCTCAACCTAGTCTAGCCTGCTTGCTGGTGGGTGTGCTCTCGGGGCATTTGCTTGTGTTTGCACGACAGCTCAGTCCCTCACTTCTCTCAAGTCTTTGCTAATAACACTCTTGCATCCAAGTCTTCCCTGACCTGCTACTTAAAAACAACTCACCCCCACCCCTAGAAATCCCTATCCTCTTCCCTACGCTTTATTTTTCTCCATAATACTTATCACCATGTAGCTGAACATGTATTTTACTCACTTTTTTTTATATTGTCCATCTTCCCTCAGTGAATTGAAAGCTCCATGAGGGCAGGAGGTTTTGTTTATTGTGTTTACTGCTTTATCCCTAGCACCCAGCACAGCATATGTGATATAGTAGACACTCAATACAAATCTGATGTGTGTGTGTCT
On to B3, for which the Gene entry in data set [4] (gene at identified genomic insertion site, multiple myeloma) is listed as “AKAP6”. Moreover, the Location entry in data set [4] (identified genomic insertion site, chromosome, multiple myeloma) was “Chr4”. Moreover, the “No. SNP” value in data set [4] (number of single nucleotide variants (SNVs or SNPs) identified, multiple myeloma) was “Many”.

B4: MM2 (1-113): fluorescently labelled fragment of MM2 (1-290) (nucleic acid, listed as Homo sapiens)
DNA: ACCCGGCCTTGGACACGCCATTTTCAACTCCGTGGTGCGTTTTTTTTTTTTTTTTTTTTTTTTTGTAATGGAGTTTCGCTCTTGTTGCCCAGGATGGAGTGCAAGGGATCTTG
modifications: DNA, all phosphodiester, methylation of C not given here; fluorescein label via fluorescein-12-dCTP or 5' FAM primer
On to B4, for which the uptake entry in data set [5] and in data set [6] was “not” throughout.
